Target: human α-SNAP with an Avitag and a C-terminal 6xHis tag (human) (UniProt P54920)
Assay: BLI; Octet RED96, 25°C; 0.25 μM biotinylated α-SNAP loaded on streptavidin biosensor tips; analyte: purified Orai1 or Stim1 fragments at varying concentrations; PBS with 2 mg/ml BSA and 0.02% Tween-20; association 5 min, dissociation 10 min; double referencing; global fit to the 1:1 or 2:1 binding model

human α-SNAP with an Avitag and a C-terminal 6xHis tag (human), sequence (P54920 whole entry, the tested form may be a part): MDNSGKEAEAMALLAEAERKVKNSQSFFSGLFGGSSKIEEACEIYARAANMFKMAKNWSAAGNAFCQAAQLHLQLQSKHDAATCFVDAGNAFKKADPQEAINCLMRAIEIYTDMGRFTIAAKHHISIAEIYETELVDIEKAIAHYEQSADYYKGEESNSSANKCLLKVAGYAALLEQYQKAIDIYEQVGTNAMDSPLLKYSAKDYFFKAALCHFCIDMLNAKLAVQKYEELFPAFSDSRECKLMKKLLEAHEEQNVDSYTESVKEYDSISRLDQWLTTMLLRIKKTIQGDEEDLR

Row | KD1 (2:1 binding model, site 1) | KD2 (2:1 binding model, site 2) | Kd | koff | koff1 (2:1 binding model, site 1) | koff2 (2:1 binding model, site 2) | kon | kon1 (2:1 binding model, site 1) | kon2 (2:1 binding model, site 2) | Substance
1 | 314 nM | 202 µM | 548 nM | 0.000595 s⁻¹ | 0.000213 s⁻¹ | 0.0306 s⁻¹ | 1080 M⁻¹ s⁻¹ | 678 M⁻¹ s⁻¹ | 152 M⁻¹ s⁻¹ | purified untagged Orai1 245–292 (from UniProt Q96D31 245-292) (domain or fragment)
2 | 198 nM | 0.715 µM | 369 nM | 0.000506 s⁻¹ | 5.62e-05 s⁻¹ | 0.0279 s⁻¹ | 1370 M⁻¹ s⁻¹ | 284 M⁻¹ s⁻¹ | 39000 M⁻¹ s⁻¹ | commercially synthesized Orai1 245–292 peptide (from UniProt Q96D31 245-292)
3 | – | – | 763 nM | 0.000117 s⁻¹ | – | – | 154 M⁻¹ s⁻¹ | – | – | purified untagged Orai1 1–103 (from UniProt Q96D31 1-103) (domain or fragment)
